Test results reported in paper PMC6882493 (Emerging Microbes & Infections, 2019).
Read-outs that look alike come from different tables or passages of the source.

Legend:
PNGM-1 [1] = system: PNGM-1
Target sequence in this assay (Z9H0G7B495 1-372 H256A limits assumed): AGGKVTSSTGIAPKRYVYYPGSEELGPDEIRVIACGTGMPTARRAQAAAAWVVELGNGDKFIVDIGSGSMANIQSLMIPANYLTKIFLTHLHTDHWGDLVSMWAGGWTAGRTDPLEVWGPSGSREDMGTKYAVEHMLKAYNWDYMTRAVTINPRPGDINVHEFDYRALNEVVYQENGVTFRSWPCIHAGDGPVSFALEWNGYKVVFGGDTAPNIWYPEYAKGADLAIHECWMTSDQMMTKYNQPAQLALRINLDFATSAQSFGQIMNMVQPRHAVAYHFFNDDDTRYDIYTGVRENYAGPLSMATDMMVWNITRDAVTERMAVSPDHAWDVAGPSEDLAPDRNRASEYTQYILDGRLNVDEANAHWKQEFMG

PNGM-1 [2] = settings: read-out: PNGM-1^a; 50 mM MES pH 7.0, 30 °C, 100 μM ZnCl2, 100 μg/ml BSA; footnote: identical to data from authors' earlier reference 13; cited from earlier work
Target sequence in this assay (Z9H0G7B495 1-372 limits assumed): as the sequence (Z9H0G7B495 1-372 H256A limits assumed) above, with A256H counted along it

PNGM-1 [3] = settings: read-out: PNGM-1^a; 50 mM MES pH 7.0, 30 °C, 100 μM ZnCl2, 100 μg/ml BSA; footnote: identical to data from authors' earlier reference 13; cited from earlier work; remark: listed apart in the source
Target sequence in this assay (Z9H0G7B495 1-372 limits assumed): as the sequence (Z9H0G7B495 1-372 H256A limits assumed) above, with A256H counted along it

PNGM-1 [4] = system: PNGM-1; remark: listed apart in the source
Target sequence in this assay (Z9H0G7B495 1-372 H256A limits assumed): as the sequence (Z9H0G7B495 1-372 H256A limits assumed) above

PNGM-1 [5] = system: PNGM-1; remark: listed apart in the source
Target sequence in this assay (Z9H0G7B495 1-372 H256A limits assumed): as above

PNGM-1 [6] = settings: read-out: PNGM-1^a; 50 mM MES pH 7.0, 30 °C, 100 μM ZnCl2, 100 μg/ml BSA; footnote: identical to data from authors' earlier reference 13; cited from earlier work; remark: listed apart in the source
Target sequence in this assay (Z9H0G7B495 1-372 limits assumed): as the sequence (Z9H0G7B495 1-372 H256A limits assumed) above, with A256H counted along it

PNGM-1 [7] = settings: read-out: PNGM-1^a; 50 mM MES pH 7.0, 30 °C, 100 μM ZnCl2, 100 μg/ml BSA; footnote: identical to data from authors' earlier reference 13; cited from earlier work; remark: listed apart in the source
Target sequence in this assay (Z9H0G7B495 1-372 limits assumed): as the sequence (Z9H0G7B495 1-372 H256A limits assumed) above, with A256H counted along it

PNGM-1 [8] = settings: read-out: PNGM-1^a; 50 mM MES pH 7.0, 30 °C, 100 μM ZnCl2, 100 μg/ml BSA; footnote: identical to data from authors' earlier reference 13; cited from earlier work; remark: listed apart in the source
Target sequence in this assay (Z9H0G7B495 1-372 limits assumed): as the sequence (Z9H0G7B495 1-372 H256A limits assumed) above, with A256H counted along it

PNGM-1 [9] = settings: read-out: PNGM-1^a; 50 mM MES pH 7.0, 30 °C, 100 μM ZnCl2, 100 μg/ml BSA; footnote: identical to data from authors' earlier reference 13; cited from earlier work; remark: listed apart in the source
Target sequence in this assay (Z9H0G7B495 1-372 limits assumed): as the sequence (Z9H0G7B495 1-372 H256A limits assumed) above, with A256H counted along it

[10] = system: C[C@@H](O)[C@H]1C(=O)N2C(C(=O)O)=C(SCCN=CN)C[C@H]12; assay: purified protein; settings: 50 mM MES pH 7.0, 30 °C, 100 μM ZnCl2, 100 μg/ml BSA
[11] = system: C[C@@H](O)[C@H]1C(=O)N2C(C(=O)O)=C(S[C@@H]3CN[C@H](C(=O)N(C)C)C3)[C@H](C)[C@H]12; assay: purified protein; settings: 50 mM MES pH 7.0, 30 °C, 100 μM ZnCl2, 100 μg/ml BSA
[12] = system: C[C@@H](O)[C@H]1C(=O)N2C(C(=O)O)=C(S[C@@H]3CN[C@H](C(=O)Nc4cccc(C(=O)O)c4)C3)[C@H](C)[C@H]12; assay: purified protein; settings: 50 mM MES pH 7.0, 30 °C, 100 μM ZnCl2, 100 μg/ml BSA

Compound	Km [10]	kcat [10]	kcat/Km [10]	Km [11]	kcat [11]	Km [12]	kcat [12]	other results
CO/N=C(\C(=O)N[C@@H]1C(=O)N2C(C(=O)O)=C(COC(C)=O)CS[C@H]12)c1csc(N)n1 [cefotaxime]								Km (PNGM-1 [1]): 3.1 ± 0.1 µM; Km (PNGM-1 [2]): 3.3 ± 0.1 µM
CO[C@@]1(NC(=O)Cc2cccs2)C(=O)N2C(C(=O)O)=C(COC(N)=O)CS[C@@H]21 [cefoxitin]								Km (PNGM-1 [3]): 4.3 ± 0.1 µM; Km (PNGM-1 [4]): 3.8 ± 0.1 µM
CC(C)(O/N=C(\C(=O)N[C@@H]1C(=O)N2C(C(=O)[O-])=C(C[n+]3ccccc3)CS[C@H]12)c1csc(N)n1)C(=O)O [ceftazidime]								Km (PNGM-1 [5]): 15.4 ± 0.1 µM; Km (PNGM-1 [6]): 15.9 ± 0.2 µM
C[C@@H](O)[C@H]1C(=O)N2C(C(=O)O)=C(S[C@@H]3CN[C@H](C(=O)Nc4cccc(C(=O)O)c4)C3)[C@H](C)[C@H]12 [ertapenem]								Km (PNGM-1 [7]): 1.9 ± 0.1 µM
C[C@@H](O)[C@H]1C(=O)N2C(C(=O)O)=C(SCCN=CN)C[C@H]12 [imipenem]								Km (PNGM-1 [8]): 2 ± 0.1 µM
C[C@@H](O)[C@H]1C(=O)N2C(C(=O)O)=C(S[C@@H]3CN[C@H](C(=O)N(C)C)C3)[C@H](C)[C@H]12 [meropenem]								Km (PNGM-1 [9]): 1.9 ± 0.1 µM
AIM-1 (Pseudomonas aeruginosa)	3.8 ± 0.1 µM	11.128 ± 0.0001 s⁻¹	2.9e+06 ± 200000 M⁻¹ s⁻¹	4.6 ± 0.1 µM	15.409 ± 0.0001 s⁻¹	5.0 ± 0.1 µM	12.376 ± 0.0001 s⁻¹	kcat/Km [12]: 2.5e+06 ± 200000 M⁻¹ s⁻¹
FEZ-1 (Fluoribacter gormanii)	3.5 ± 0.1 µM	0.763 ± 0.001 s⁻¹	220000 ± 10000 M⁻¹ s⁻¹	4.2 ± 0.1 µM	0.773 ± 0.001 s⁻¹	4.6 ± 0.1 µM	0.667 ± 0.001 s⁻¹	kcat/Km [11]: 180000 ± 10000 M⁻¹ s⁻¹
GOB-18 (Elizabethkingia meningoseptica)	4.8 ± 0.1 µM	6.188 ± 0.003 s⁻¹	1.3e+06 ± 200000 M⁻¹ s⁻¹	5.7 ± 0.1 µM	8.568 ± 0.001 s⁻¹	6.3 ± 0.1 µM	6.882 ± 0.002 s⁻¹	kcat/Km [11]: 1.5e+06 ± 100000 M⁻¹ s⁻¹; kcat/Km [12]: 1.1e+06 ± 200000 M⁻¹ s⁻¹
